Bridge positions count the residues as written; N and C are the ends. Square brackets hold non-standard residues; d marks the D form. Phe(3,4-Cl2) = N[C@@H](Cc1ccc(Cl)c(Cl)c1)C(=O)O; Phe(4-CF3) = N[C@@H](Cc1ccc(C(F)(F)F)cc1)C(=O)O; Bip = N[C@@H](Cc1ccc(-c2ccccc2)cc1)C(=O)O; NMeF = CN[C@@H](Cc1ccccc1)C(=O)O; NMeE = CN[C@@H](CCC(=O)O)C(=O)O; NMeA = CN[C@@H](C)C(=O)O
B1: Ac*-F-V-D-S-T-Y-(N-Me)A-B-(N-Me)A-N-H-P-C*-G-NH2 (peptide)
peptide: {CH2CO}-FVDSTY[NMeA][Bip][NMeA]NHPCG-NH2
modifications: thioether N-13
SMILES: CC(C)[C@@H]1NC(=O)[C@H](Cc2ccccc2)NC(=O)CSC[C@@H](C(=O)NCC(N)=O)NC(=O)[C@@H]2CCCN2C(=O)[C@H](Cc2c[nH]cn2)NC(=O)[C@H](CC(N)=O)NC(=O)[C@H](C)N(C)C(=O)[C@H](Cc2ccc(-c3ccccc3)cc2)NC(=O)[C@H](C)N(C)C(=O)[C@H](Cc2ccc(O)cc2)NC(=O)[C@H]([C@@H](C)O)NC(=O)[C@H](CO)NC(=O)[C@H](CC(=O)O)NC1=O
notes: also called 1-4; Ex. No. 1-4
B2: Ac*-F-V-D-T-T-S-(N-Me)F-B-(N-Me)A-E-S-P-C*-G-NH2 (peptide)
peptide: {CH2CO}-FVDTTS[NMeF][Bip][NMeA]ESPCG-NH2
modifications: thioether N-13
SMILES: CC(C)[C@@H]1NC(=O)[C@H](Cc2ccccc2)NC(=O)CSC[C@@H](C(=O)NCC(N)=O)NC(=O)[C@@H]2CCCN2C(=O)[C@H](CO)NC(=O)[C@H](CCC(=O)O)NC(=O)[C@H](C)N(C)C(=O)[C@H](Cc2ccc(-c3ccccc3)cc2)NC(=O)[C@H](Cc2ccccc2)N(C)C(=O)[C@H](CO)NC(=O)[C@H]([C@@H](C)O)NC(=O)[C@H]([C@@H](C)O)NC(=O)[C@H](CC(=O)O)NC1=O
notes: also called 1-5; Ex. No. 1-5
B3: Ac*-F-V-D-T-T-S-(N-Me)F-B-(N-Me)A-N-S-P-C*-G-NH2 (peptide)
peptide: {CH2CO}-FVDTTS[NMeF][Bip][NMeA]NSPCG-NH2
modifications: thioether N-13
SMILES: CC(C)[C@@H]1NC(=O)[C@H](Cc2ccccc2)NC(=O)CSC[C@@H](C(=O)NCC(N)=O)NC(=O)[C@@H]2CCCN2C(=O)[C@H](CO)NC(=O)[C@H](CC(N)=O)NC(=O)[C@H](C)N(C)C(=O)[C@H](Cc2ccc(-c3ccccc3)cc2)NC(=O)[C@H](Cc2ccccc2)N(C)C(=O)[C@H](CO)NC(=O)[C@H]([C@@H](C)O)NC(=O)[C@H]([C@@H](C)O)NC(=O)[C@H](CC(=O)O)NC1=O
notes: also called 1-3; Ex. No. 1-3
B4: Ac*-F-V-D-T-T-S-(N-Me)F-B-(N-Me)E-N-S-P-C*-G-NH2 (peptide)
peptide: {CH2CO}-FVDTTS[NMeF][Bip][NMeE]NSPCG-NH2
modifications: thioether N-13
SMILES: CC(C)[C@@H]1NC(=O)[C@H](Cc2ccccc2)NC(=O)CSC[C@@H](C(=O)NCC(N)=O)NC(=O)[C@@H]2CCCN2C(=O)[C@H](CO)NC(=O)[C@H](CC(N)=O)NC(=O)[C@H](CCC(=O)O)N(C)C(=O)[C@H](Cc2ccc(-c3ccccc3)cc2)NC(=O)[C@H](Cc2ccccc2)N(C)C(=O)[C@H](CO)NC(=O)[C@H]([C@@H](C)O)NC(=O)[C@H]([C@@H](C)O)NC(=O)[C@H](CC(=O)O)NC1=O
notes: also called 1-1; Ex. No. 1-1
B5: Ac*-F-V-S-T-T-S-(N-Me)F-B-(N-Me)A-E-S-P-C*-G-NH2 (peptide)
peptide: FVSTTSFXAESPCG
modifications: not fully specified; N-terminal acetyl (Ac*) joined by a sulfide bond to the side chain of Cys13 (cyclic); 7: L-(N-Me)Phe; 8: L-Bip; 9: L-(N-Me)Ala; C-terminal amide (NH2)
notes: also called 1-12; Ex. No. 1-12
B6: Ac*-F-V-D-T-T-S-(N-Me)F-(p-CF3)F-(N-Me)A-E-S-P-C*-G-NH2 (peptide)
peptide: {CH2CO}-FVDTTS[NMeF][Phe(4-CF3)][NMeA]ESPCG-NH2
modifications: thioether N-13
SMILES: CC(C)[C@@H]1NC(=O)[C@H](Cc2ccccc2)NC(=O)CSC[C@@H](C(=O)NCC(N)=O)NC(=O)[C@@H]2CCCN2C(=O)[C@H](CO)NC(=O)[C@H](CCC(=O)O)NC(=O)[C@H](C)N(C)C(=O)[C@H](Cc2ccc(C(F)(F)F)cc2)NC(=O)[C@H](Cc2ccccc2)N(C)C(=O)[C@H](CO)NC(=O)[C@H]([C@@H](C)O)NC(=O)[C@H]([C@@H](C)O)NC(=O)[C@H](CC(=O)O)NC1=O
notes: also called 1-6; Ex. No. 1-6
B7: Ac*-F-V-D-T-T-S-(N-Me)A-B-(N-Me)A-K-S-P-C*-G-NH2 (peptide)
peptide: {CH2CO}-FVDTTS[NMeA][Bip][NMeA]KSPCG-NH2
modifications: thioether N-13
SMILES: CC(C)[C@@H]1NC(=O)[C@H](Cc2ccccc2)NC(=O)CSC[C@@H](C(=O)NCC(N)=O)NC(=O)[C@@H]2CCCN2C(=O)[C@H](CO)NC(=O)[C@H](CCCCN)NC(=O)[C@H](C)N(C)C(=O)[C@H](Cc2ccc(-c3ccccc3)cc2)NC(=O)[C@H](C)N(C)C(=O)[C@H](CO)NC(=O)[C@H]([C@@H](C)O)NC(=O)[C@H]([C@@H](C)O)NC(=O)[C@H](CC(=O)O)NC1=O
notes: also called 1-7; Ex. No. 1-7
B8: Ac*-F-V-S-T-T-B-(N-Me)A-B-(N-Me)A-D-S-P-C*-G-NH2 (peptide)
peptide: FVSTTXAXADSPCG
modifications: not fully specified; N-terminal acetyl (Ac*) joined by a sulfide bond to the side chain of Cys13 (cyclic); 6: L-Bip; 7: L-(N-Me)Ala; 8: L-Bip; 9: L-(N-Me)Ala; C-terminal amide (NH2)
notes: also called 1-8; Ex. No. 1-8
B9: Ac*-F-V-D-T-T-B-(N-Me)A-(3,4-diCl)F-(N-Me)A-E-S-P-C*-G-NH2 (peptide)
peptide: {CH2CO}-FVDTT[Bip][NMeA][Phe(3,4-Cl2)][NMeA]ESPCG-NH2
modifications: thioether N-13
SMILES: CC(C)[C@@H]1NC(=O)[C@H](Cc2ccccc2)NC(=O)CSC[C@@H](C(=O)NCC(N)=O)NC(=O)[C@@H]2CCCN2C(=O)[C@H](CO)NC(=O)[C@H](CCC(=O)O)NC(=O)[C@H](C)N(C)C(=O)[C@H](Cc2ccc(Cl)c(Cl)c2)NC(=O)[C@H](C)N(C)C(=O)[C@H](Cc2ccc(-c3ccccc3)cc2)NC(=O)[C@H]([C@@H](C)O)NC(=O)[C@H]([C@@H](C)O)NC(=O)[C@H](CC(=O)O)NC1=O
notes: also called 1-26; Ex. No. 1-26
B10: Ac*-F-V-D-T-T-B-(N-Me)A-B-(N-Me)A-E-S-P-C*-G-NH2 (peptide)
peptide: {CH2CO}-FVDTT[Bip][NMeA][Bip][NMeA]ESPCG-NH2
modifications: thioether N-13
SMILES: CC(C)[C@@H]1NC(=O)[C@H](Cc2ccccc2)NC(=O)CSC[C@@H](C(=O)NCC(N)=O)NC(=O)[C@@H]2CCCN2C(=O)[C@H](CO)NC(=O)[C@H](CCC(=O)O)NC(=O)[C@H](C)N(C)C(=O)[C@H](Cc2ccc(-c3ccccc3)cc2)NC(=O)[C@H](C)N(C)C(=O)[C@H](Cc2ccc(-c3ccccc3)cc2)NC(=O)[C@H]([C@@H](C)O)NC(=O)[C@H]([C@@H](C)O)NC(=O)[C@H](CC(=O)O)NC1=O
notes: also called 1-10; Ex. No. 1-10
B11: Ac*-F-V-P-T-T-B-(N-Me)A-B-(N-Me)A-D-R-P-C*-G-NH2 (peptide)
peptide: {CH2CO}-FVPTT[Bip][NMeA][Bip][NMeA]DRPCG-NH2
modifications: thioether N-13
SMILES: CC(C)[C@@H]1NC(=O)[C@H](Cc2ccccc2)NC(=O)CSC[C@@H](C(=O)NCC(N)=O)NC(=O)[C@@H]2CCCN2C(=O)[C@H](CCCNC(=N)N)NC(=O)[C@H](CC(=O)O)NC(=O)[C@H](C)N(C)C(=O)[C@H](Cc2ccc(-c3ccccc3)cc2)NC(=O)[C@H](C)N(C)C(=O)[C@H](Cc2ccc(-c3ccccc3)cc2)NC(=O)[C@H]([C@@H](C)O)NC(=O)[C@H]([C@@H](C)O)NC(=O)[C@@H]2CCCN2C1=O
notes: also called 1-19; Ex. No. 1-19
B12: Ac*-F-V-S-T-T-(p-CF3)F-(N-Me)A-(p-CF3)F-(N-Me)A-E-R-P-C*-G-NH2 (peptide)
peptide: {CH2CO}-FVSTT[Phe(4-CF3)][NMeA][Phe(4-CF3)][NMeA]ERPCG-NH2
modifications: thioether N-13
SMILES: CC(C)[C@@H]1NC(=O)[C@H](Cc2ccccc2)NC(=O)CSC[C@@H](C(=O)NCC(N)=O)NC(=O)[C@@H]2CCCN2C(=O)[C@H](CCCNC(=N)N)NC(=O)[C@H](CCC(=O)O)NC(=O)[C@H](C)N(C)C(=O)[C@H](Cc2ccc(C(F)(F)F)cc2)NC(=O)[C@H](C)N(C)C(=O)[C@H](Cc2ccc(C(F)(F)F)cc2)NC(=O)[C@H]([C@@H](C)O)NC(=O)[C@H]([C@@H](C)O)NC(=O)[C@H](CO)NC1=O
notes: also called 1-11; Ex. No. 1-11

Biological target: T1, Human PCSK9 Alexa Fluor 647 (human, UniProt Q8NBP7 31-692, limits assumed, Alexa Fluor 647 label (site not stated))
T1 construct: Labelled tracer of the TR-FRET assay, 16 nM stock; also called proprotein convertase subtilisin/kexin type 9
T1 sequence (Q8NBP7 31-692 limits assumed): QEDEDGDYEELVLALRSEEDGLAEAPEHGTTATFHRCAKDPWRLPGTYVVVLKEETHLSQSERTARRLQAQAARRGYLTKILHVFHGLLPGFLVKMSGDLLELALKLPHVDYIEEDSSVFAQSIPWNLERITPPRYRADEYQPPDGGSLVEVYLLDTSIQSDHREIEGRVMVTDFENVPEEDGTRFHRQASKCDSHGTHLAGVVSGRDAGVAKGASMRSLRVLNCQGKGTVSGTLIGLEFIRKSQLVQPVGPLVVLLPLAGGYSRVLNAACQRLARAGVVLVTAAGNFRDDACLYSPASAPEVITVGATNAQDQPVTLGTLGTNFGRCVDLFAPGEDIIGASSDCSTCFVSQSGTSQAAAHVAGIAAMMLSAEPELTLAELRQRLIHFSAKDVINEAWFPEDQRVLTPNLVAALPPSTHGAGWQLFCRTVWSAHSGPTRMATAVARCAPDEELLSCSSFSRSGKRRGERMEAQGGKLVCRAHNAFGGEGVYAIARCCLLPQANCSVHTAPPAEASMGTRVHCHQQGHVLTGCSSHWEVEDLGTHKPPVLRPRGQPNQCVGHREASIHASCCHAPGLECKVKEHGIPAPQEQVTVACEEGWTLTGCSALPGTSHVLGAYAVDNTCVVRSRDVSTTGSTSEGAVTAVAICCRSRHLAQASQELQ
Test: TR-FRET competition: PCSK9-Alexa Fluor 647 vs LDLR ECD-Eu kryptate
Description: A Proxi plate-low volume assay plate was used for the assay. […] Following a 30 minute incubation, 5 uL of 4 nM Human LDLR extracellular domain-Europium Kryptate was added and the mixture was incubated for an additional 2 hours.
The TR-FRET signal was measured on an EnVision or PheraStar instrument with a 60 μs delay, 330 nm excitation and 665 nm emission (FRET), and 330 nm excitation and 615 nm (Europium). The FRET ratio (FRET/Europium) was used for calculations.

| Binder | IC50 | Maximum % inhibition |
| --- | --- | --- |
| B1 | 4 nM | 60% |
| B2 | 35 nM | 95% |
| B3 | 2.1 nM | 55% |
| B4 | 2.6 nM | 65% |
| B5 | 14 nM | 87% |
| B6 | 12 nM | 97% |
| B7 | 410 nM | 60% |
| B8 | 2.3 nM | 58% |
| B9 | 2.4 nM | 84% |
| B10 | 6 nM | 90% |
| B11 | 2.7 nM | 38% |
| B12 | 3.6 nM | 55% |

Reference: patent publication US20220024981A1 (Novartis, published 2022)
